Literature values, collected in article PMC2913173.

Target: Bcl-2 (Homo sapiens) (UniProt P10415)
Experiment: fluorescence polarization

Bcl-2 (Homo sapiens), sequence (P10415 whole entry): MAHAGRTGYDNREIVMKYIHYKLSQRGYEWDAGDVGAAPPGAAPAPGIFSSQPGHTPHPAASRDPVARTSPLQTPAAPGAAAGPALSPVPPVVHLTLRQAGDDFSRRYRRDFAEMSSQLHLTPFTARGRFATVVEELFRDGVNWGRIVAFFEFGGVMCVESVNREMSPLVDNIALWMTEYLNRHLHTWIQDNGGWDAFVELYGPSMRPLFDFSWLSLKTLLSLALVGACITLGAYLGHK

Kd: 1600 nM
Substance: Bak 72-87 (from UniProt Q16611)
